According to patent US20250304643A1 (BAINAN BIOTECH, published 2025):
*1 amine or outer side, *2 acyl side, *3 side chain or, on linkers, in order; H or OH if unused. Where no end group is shown, it is not given here. Side-chain parts run from the residue outwards. [ ]: non-standard residue; d: D form. The star is where a group is joined. C16 diacid = O=C(O)CCCCCCCCCCCCCCC(=O)*; γGlu = O=C(O)[C@H](CCC(=O)[*:2])N[*:1]; Palmitoyl = CCCCCCCCCCCCCCCC(=O)*; Decanoyl = CCCCCCCCCC(=O)*; Aib = CC(C)(N)C(=O)O

Tests used:
[1] = biological target: T1, human glucose-dependent insulinotropic polypeptide receptor (human, UniProt P48546 22-466); assay: cell-based or functional assay
T1 sequence (looked up): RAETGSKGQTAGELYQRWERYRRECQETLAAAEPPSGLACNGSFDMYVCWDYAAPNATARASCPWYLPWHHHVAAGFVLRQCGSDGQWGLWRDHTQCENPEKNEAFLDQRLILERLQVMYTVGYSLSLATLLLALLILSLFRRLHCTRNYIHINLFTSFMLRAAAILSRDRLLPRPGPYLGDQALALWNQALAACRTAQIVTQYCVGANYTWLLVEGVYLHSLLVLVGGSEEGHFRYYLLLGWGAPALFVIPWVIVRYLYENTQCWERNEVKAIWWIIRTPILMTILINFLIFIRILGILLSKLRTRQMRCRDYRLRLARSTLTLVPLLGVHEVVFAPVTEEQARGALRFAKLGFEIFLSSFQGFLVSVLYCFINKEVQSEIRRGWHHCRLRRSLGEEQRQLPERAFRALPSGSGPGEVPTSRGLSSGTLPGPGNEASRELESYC

[2] = biological target: T2, human glucagon-like peptide-2 receptor (human, UniProt O95838 1-553); assay: cell-based or functional assay
T2 sequence (looked up): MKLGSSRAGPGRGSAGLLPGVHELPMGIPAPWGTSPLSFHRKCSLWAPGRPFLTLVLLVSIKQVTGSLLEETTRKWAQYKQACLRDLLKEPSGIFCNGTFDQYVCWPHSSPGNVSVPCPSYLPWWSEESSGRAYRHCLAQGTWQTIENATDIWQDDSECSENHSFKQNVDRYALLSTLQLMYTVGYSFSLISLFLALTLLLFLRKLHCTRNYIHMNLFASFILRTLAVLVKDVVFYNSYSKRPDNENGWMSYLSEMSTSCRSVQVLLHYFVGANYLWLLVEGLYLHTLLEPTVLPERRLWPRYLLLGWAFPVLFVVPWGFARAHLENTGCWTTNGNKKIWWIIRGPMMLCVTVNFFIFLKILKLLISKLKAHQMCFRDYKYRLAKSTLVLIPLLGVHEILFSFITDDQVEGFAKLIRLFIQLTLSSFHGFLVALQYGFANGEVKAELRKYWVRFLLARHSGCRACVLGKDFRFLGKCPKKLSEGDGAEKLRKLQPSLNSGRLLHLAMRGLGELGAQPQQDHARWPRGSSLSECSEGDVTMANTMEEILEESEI

B1: Compound no. 28 (peptide)
peptide: H[Aib]DGK([γGlu-γGlu-Palmitoyl])FISDYST[Aib]LDNLAARDFINWLIQTKITK-OH
modifications: N-terminus assumed
SMILES: CCCCCCCCCCCCCCCC(=O)N[C@@H](CCC(=O)N[C@@H](CCC(=O)NCCCC[C@H](NC(=O)CNC(=O)[C@H](CC(=O)O)NC(=O)C(C)(C)NC(=O)[C@@H](N)Cc1c[nH]cn1)C(=O)N[C@@H](Cc1ccccc1)C(=O)N[C@H](C(=O)N[C@@H](CO)C(=O)N[C@@H](CC(=O)O)C(=O)N[C@@H](Cc1ccc(O)cc1)C(=O)N[C@@H](CO)C(=O)N[C@H](C(=O)NC(C)(C)C(=O)N[C@@H](CC(C)C)C(=O)N[C@@H](CC(=O)O)C(=O)N[C@@H](CC(N)=O)C(=O)N[C@@H](CC(C)C)C(=O)N[C@@H](C)C(=O)N[C@@H](C)C(=O)N[C@@H](CCCNC(=N)N)C(=O)N[C@@H](CC(=O)O)C(=O)N[C@@H](Cc1ccccc1)C(=O)N[C@H](C(=O)N[C@@H](CC(N)=O)C(=O)N[C@@H](Cc1c[nH]c2ccccc12)C(=O)N[C@@H](CC(C)C)C(=O)N[C@H](C(=O)N[C@@H](CCC(N)=O)C(=O)N[C@H](C(=O)N[C@@H](CCCCN)C(=O)N[C@H](C(=O)N[C@H](C(=O)N[C@@H](CCCCN)C(=O)O)[C@@H](C)O)[C@@H](C)CC)[C@@H](C)O)[C@@H](C)CC)[C@@H](C)CC)[C@@H](C)O)[C@@H](C)CC)C(=O)O)C(=O)O
[1]
  Efficacy GIPR: 105%
[2]
  Efficacy GLP-2R: 99%

B2: Compound no. 29 (peptide)
peptide: H[Aib]DGTFISDYK([γGlu-Palmitoyl])T[Aib]LDNLAARDFINWLIQTKITK-OH
modifications: N-terminus assumed
SMILES: CCCCCCCCCCCCCCCC(=O)N[C@@H](CCC(=O)NCCCC[C@H](NC(=O)[C@H](Cc1ccc(O)cc1)NC(=O)[C@H](CC(=O)O)NC(=O)[C@H](CO)NC(=O)[C@@H](NC(=O)[C@H](Cc1ccccc1)NC(=O)[C@@H](NC(=O)CNC(=O)[C@H](CC(=O)O)NC(=O)C(C)(C)NC(=O)[C@@H](N)Cc1c[nH]cn1)[C@@H](C)O)[C@@H](C)CC)C(=O)N[C@H](C(=O)NC(C)(C)C(=O)N[C@@H](CC(C)C)C(=O)N[C@@H](CC(=O)O)C(=O)N[C@@H](CC(N)=O)C(=O)N[C@@H](CC(C)C)C(=O)N[C@@H](C)C(=O)N[C@@H](C)C(=O)N[C@@H](CCCNC(=N)N)C(=O)N[C@@H](CC(=O)O)C(=O)N[C@@H](Cc1ccccc1)C(=O)N[C@H](C(=O)N[C@@H](CC(N)=O)C(=O)N[C@@H](Cc1c[nH]c2ccccc12)C(=O)N[C@@H](CC(C)C)C(=O)N[C@H](C(=O)N[C@@H](CCC(N)=O)C(=O)N[C@H](C(=O)N[C@@H](CCCCN)C(=O)N[C@H](C(=O)N[C@H](C(=O)N[C@@H](CCCCN)C(=O)O)[C@@H](C)O)[C@@H](C)CC)[C@@H](C)O)[C@@H](C)CC)[C@@H](C)CC)[C@@H](C)O)C(=O)O
[1]
  Efficacy GIPR: 104%
[2]
  Efficacy GLP-2R: 124%

B3: Compound no. 27 (peptide)
peptide: H[Aib]EGK([γGlu-Palmitoyl])FISDYST[Aib]LDNLAARDFINWLIQTKITK-OH
modifications: N-terminus assumed
SMILES: CCCCCCCCCCCCCCCC(=O)N[C@@H](CCC(=O)NCCCC[C@H](NC(=O)CNC(=O)[C@H](CCC(=O)O)NC(=O)C(C)(C)NC(=O)[C@@H](N)Cc1c[nH]cn1)C(=O)N[C@@H](Cc1ccccc1)C(=O)N[C@H](C(=O)N[C@@H](CO)C(=O)N[C@@H](CC(=O)O)C(=O)N[C@@H](Cc1ccc(O)cc1)C(=O)N[C@@H](CO)C(=O)N[C@H](C(=O)NC(C)(C)C(=O)N[C@@H](CC(C)C)C(=O)N[C@@H](CC(=O)O)C(=O)N[C@@H](CC(N)=O)C(=O)N[C@@H](CC(C)C)C(=O)N[C@@H](C)C(=O)N[C@@H](C)C(=O)N[C@@H](CCCNC(=N)N)C(=O)N[C@@H](CC(=O)O)C(=O)N[C@@H](Cc1ccccc1)C(=O)N[C@H](C(=O)N[C@@H](CC(N)=O)C(=O)N[C@@H](Cc1c[nH]c2ccccc12)C(=O)N[C@@H](CC(C)C)C(=O)N[C@H](C(=O)N[C@@H](CCC(N)=O)C(=O)N[C@H](C(=O)N[C@@H](CCCCN)C(=O)N[C@H](C(=O)N[C@H](C(=O)N[C@@H](CCCCN)C(=O)O)[C@@H](C)O)[C@@H](C)CC)[C@@H](C)O)[C@@H](C)CC)[C@@H](C)CC)[C@@H](C)O)[C@@H](C)CC)C(=O)O
[1]
  Efficacy GIPR: 98%
[2]
  Efficacy GLP-2R: 108%

B4: Compound no. 26 (peptide)
peptide: H[Aib]DGK([γGlu-γGlu-Decanoyl])FISDYSTILDNLAARDFINWLIQTKITK-OH
modifications: N-terminus assumed
SMILES: CCCCCCCCCC(=O)N[C@@H](CCC(=O)N[C@@H](CCC(=O)NCCCC[C@H](NC(=O)CNC(=O)[C@H](CC(=O)O)NC(=O)C(C)(C)NC(=O)[C@@H](N)Cc1c[nH]cn1)C(=O)N[C@@H](Cc1ccccc1)C(=O)N[C@H](C(=O)N[C@@H](CO)C(=O)N[C@@H](CC(=O)O)C(=O)N[C@@H](Cc1ccc(O)cc1)C(=O)N[C@@H](CO)C(=O)N[C@H](C(=O)N[C@H](C(=O)N[C@@H](CC(C)C)C(=O)N[C@@H](CC(=O)O)C(=O)N[C@@H](CC(N)=O)C(=O)N[C@@H](CC(C)C)C(=O)N[C@@H](C)C(=O)N[C@@H](C)C(=O)N[C@@H](CCCNC(=N)N)C(=O)N[C@@H](CC(=O)O)C(=O)N[C@@H](Cc1ccccc1)C(=O)N[C@H](C(=O)N[C@@H](CC(N)=O)C(=O)N[C@@H](Cc1c[nH]c2ccccc12)C(=O)N[C@@H](CC(C)C)C(=O)N[C@H](C(=O)N[C@@H](CCC(N)=O)C(=O)N[C@H](C(=O)N[C@@H](CCCCN)C(=O)N[C@H](C(=O)N[C@H](C(=O)N[C@@H](CCCCN)C(=O)O)[C@@H](C)O)[C@@H](C)CC)[C@@H](C)O)[C@@H](C)CC)[C@@H](C)CC)[C@@H](C)CC)[C@@H](C)O)[C@@H](C)CC)C(=O)O)C(=O)O
[1]
  Efficacy GIPR: 80%
[2]
  Efficacy GLP-2R: 91%

B5: Compound no. 25 (peptide)
peptide: H[Aib]DGK([γGlu-C16 diacid])FISDYST[Aib]LDNLAARDFINWLIQTKITK-OH
modifications: N-terminus assumed
SMILES: CC[C@H](C)[C@H](NC(=O)[C@H](Cc1ccccc1)NC(=O)[C@H](CCCCNC(=O)CC[C@H](NC(=O)CCCCCCCCCCCCCCC(=O)O)C(=O)O)NC(=O)CNC(=O)[C@H](CC(=O)O)NC(=O)C(C)(C)NC(=O)[C@@H](N)Cc1c[nH]cn1)C(=O)N[C@@H](CO)C(=O)N[C@@H](CC(=O)O)C(=O)N[C@@H](Cc1ccc(O)cc1)C(=O)N[C@@H](CO)C(=O)N[C@H](C(=O)NC(C)(C)C(=O)N[C@@H](CC(C)C)C(=O)N[C@@H](CC(=O)O)C(=O)N[C@@H](CC(N)=O)C(=O)N[C@@H](CC(C)C)C(=O)N[C@@H](C)C(=O)N[C@@H](C)C(=O)N[C@@H](CCCNC(=N)N)C(=O)N[C@@H](CC(=O)O)C(=O)N[C@@H](Cc1ccccc1)C(=O)N[C@H](C(=O)N[C@@H](CC(N)=O)C(=O)N[C@@H](Cc1c[nH]c2ccccc12)C(=O)N[C@@H](CC(C)C)C(=O)N[C@H](C(=O)N[C@@H](CCC(N)=O)C(=O)N[C@H](C(=O)N[C@@H](CCCCN)C(=O)N[C@H](C(=O)N[C@H](C(=O)N[C@@H](CCCCN)C(=O)O)[C@@H](C)O)[C@@H](C)CC)[C@@H](C)O)[C@@H](C)CC)[C@@H](C)CC)[C@@H](C)O
[1]
  Efficacy GIPR: 93%
[2]
  Efficacy GLP-2R: 88%
  logEC50 GLP-2R: 9

B6: Compound no. 24 (peptide)
peptide: H[Aib]DGK([γGlu-Decanoyl])FISDYST[Aib]LDNLAARDFINWLIQTKITK-OH
modifications: N-terminus assumed
SMILES: CCCCCCCCCC(=O)N[C@@H](CCC(=O)NCCCC[C@H](NC(=O)CNC(=O)[C@H](CC(=O)O)NC(=O)C(C)(C)NC(=O)[C@@H](N)Cc1c[nH]cn1)C(=O)N[C@@H](Cc1ccccc1)C(=O)N[C@H](C(=O)N[C@@H](CO)C(=O)N[C@@H](CC(=O)O)C(=O)N[C@@H](Cc1ccc(O)cc1)C(=O)N[C@@H](CO)C(=O)N[C@H](C(=O)NC(C)(C)C(=O)N[C@@H](CC(C)C)C(=O)N[C@@H](CC(=O)O)C(=O)N[C@@H](CC(N)=O)C(=O)N[C@@H](CC(C)C)C(=O)N[C@@H](C)C(=O)N[C@@H](C)C(=O)N[C@@H](CCCNC(=N)N)C(=O)N[C@@H](CC(=O)O)C(=O)N[C@@H](Cc1ccccc1)C(=O)N[C@H](C(=O)N[C@@H](CC(N)=O)C(=O)N[C@@H](Cc1c[nH]c2ccccc12)C(=O)N[C@@H](CC(C)C)C(=O)N[C@H](C(=O)N[C@@H](CCC(N)=O)C(=O)N[C@H](C(=O)N[C@@H](CCCCN)C(=O)N[C@H](C(=O)N[C@H](C(=O)N[C@@H](CCCCN)C(=O)O)[C@@H](C)O)[C@@H](C)CC)[C@@H](C)O)[C@@H](C)CC)[C@@H](C)CC)[C@@H](C)O)[C@@H](C)CC)C(=O)O
[1]
  Efficacy GIPR: 113%
[2]
  Efficacy GLP-2R: 90%
